Measured values as given in the nanobody polyreactivity screen of Harvey et al. (2022).

Test: yeast display, Sf9 membrane polyspecificity reagent, FACS + sequencing; frameworks hold sequencing errors
Outline: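 Nanobodies from a synthetic yeast display library (Saccharomyces cerevisiae BJ5465), induced 36–48 hours with galactose, were stained 1 hour at 4 °C with 10% biotinylated, detergent-solubilized Sf9 membrane reagent, enriched on streptavidin microbeads, then FACS-sorted. Anti-HA (expression) and streptavidin (reagent binding) fluorescence set low and high (top ~1%) gates. Polyreactivity labels come from the gate of origin. Genes were colony-PCR amplified, MiSeq 2 × 250 sequenced and filtered by CDR length.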

Row | Sequence | polyreactivity (PSR sort gate)
1 | QVQLVESGGGLVQAGGSLRLSCAASGSIFPWYTMGWYRQAPGKERELVAAITSSGGGTYYADSVKGRFTISRDNAKNTVYLQMNSLKPEDTAVYYCAAGLDWGPEYEYWGQGTQVTVSS | low polyreactivity
2 | QVQLVESGGGLVQAGGSLRLSCAASGSIFPYAMGWYRQAPGKERELVAVISWSGASTYYADSVKGRFTISRDNAKNTVYLQMNSLKPEDTAVYYCAVYRYYKLVHLYGYDYWGQGTQVTVSS | high polyreactivity
3 | QVQLVESGGGLVQAGGSLRLSCAASGSIFPYNAMGCYRQAPGKEMELVAVITSSGASTYYADSVKGRFTISLDNSKNTVYLQMNSLKPEDTAVYYCAARGYNYYFGGYDYWGQGTQVTVSS | low polyreactivity
4 | QVQLVESGGGLVQAGGSLRLSCAASGSIFPYYALGWYRQAPGKERELVAAISWSGTSTYYADSVKGRFTISRDNAKNTVYLQMNSLKPEDTAVYYCNAGYYHFYASGYDYWGQGTQVTVSS | low polyreactivity
5 | QVQLVESGGGLVQAGGSLRLSCAASGSIFPYYAMGWYRQAPGKERELVATISNSGGSTYYADSVKGRFTISRDNAKNTVYLQMNSLKPEDTAVYYCAADRGSYPYTGDYWGQGTQVNVSS | low polyreactivity
6 | QVQLVESGGGLVQAGGSLRLSCAASGSIFPYYAMGWYRQAPGKERELVATITYRGGSTNYADSVKGRFTISRDNAKNTVYLQMNSLKPEDTAVYYCAAYGYVLASPYPYSFVKLGYWGQGTQVTVSS | low polyreactivity
7 | QVQLVESGGGLVQAGGSLRLSCAASGSIFQAYAMGWYRQAPGKERELVASISQSGDSTYYADSVKGRFTISRDNAKNTVYLQMNSLNPVDTAVYYCAAVQYGHRRGRVSVRRRLDYWGQGTQVTVSS | low polyreactivity
8 | QVQLVESGGGLVQAGGSLRLSCAASGSIFQCYTMGWSRQAPGKERELVAAISSTGSTNYADCVMGRFTISLDNAKNTVYLQMNSMNPEDTAVFYCAGVGTYLAGYQFDYWGQGTQVTVSS | low polyreactivity
9 | QVQLVESGGGLVQAGGSLRLSCAASGSIFQDNTMGWYRQAPGKERELVAAISWSATSTYYADSVTGRFSISRDNAKNTVYLQMNRLKPEDTAVYDCAAGRSYRRYAYYYWGQGTQVTVSS | high polyreactivity
10 | QVQLVESGGGLVQAGGSLRLSCAASGSIFQFYAMGWYRQAPGKERELVADISYGGSTYYADSVKGRFTISRDNAKKTVYLQMNSLKPEDTAVYYCAAAAYWWVKGFGSYYWGQGTQVTVSS | high polyreactivity
11 | QVQLVESGGGLVQAGGSLRLSCAASGSIFQFYAMGWYRQAPGKERELVAVITTSGVSTYYADSVKGRFTISRDNAKNTVYLQMNSLKPEATAVYYCAADDYYLAGDYWGQGTQVTVSS | low polyreactivity
12 | QVQLVESGGGLVQAGGSLRLSCAASGSIFQLNAKGWYRQAPGKERELVAAITWSGDSTYYADSVKGRFTISRDNAKNTVYLQMNSLKPEDTAVYYCAADVLTTPPPREFEYWGQGTQVTVSS | high polyreactivity
13 | QVQLVESGGGLVQAGGSLRLSCAASGSIFQPYAMGWYRQAPGKERELVAAISSSGGSTTYADSVKGRFTISRDNAKNTVYLQMNSLKPEDTAVYYCAADSADDMGYWGQGTQVTVSS | low polyreactivity
14 | QVQLVESGGGLVQAGGSLRLSCAASGSIFQPYAMGWYRQAPGKERELVAAITNGGSTYYADSVKGRFTISRDNAKNTVYLQMNSLKPEDTAVYYCAADVQSSHEYDYWGQGTQVTVSS | low polyreactivity
15 | QVQLVESGGGLVQAGGSLRLSCAASGSIFQRYAMGWYRQAPGKERECVAAISGRGGSTYYADSVKGRFTISRDNAKNTVYLQMNSLKPEDTAVYYCAADSSRFYGRPRYYYWGQGTQVTVSS | high polyreactivity
16 | QVQLVESGGGLVQAGGSLRLSCAASGSIFQRYTMGWYIQAPGKERELVAAISWSGDGTYYADSVKGRFTISRDNAKNTFYLQMNSLKPEDTAVYYCNDGYTRRYRFRVENDYDYWGQGTQVTVSS | high polyreactivity
17 | QVQLVESGGGLVQAGGSLRLSCAASGSIFQSNAMGWSRQAPGKERELVAAISSRGGRTYYADSVKGRFTISRDNAKYTVYLQLNSLKPEDTAVYYCAVVPFTEHDYWGQGTQVTVSS | high polyreactivity
18 | QVQLVESGGGLVQAGGSLRLSCAASGSIFQSYAMGWYRQAPGKERELVAGISSDGSTYYADSVKGRFTISRDNAKNTVYLQMNSLKPEDTAVYYCAAERWGNPTDYQFWRPYDYWGQGTQVTVSS | low polyreactivity
19 | QVQLVESGGGLVQAGGSLRLSCAASGSIFQVNAMGWYRQAPGKERELVAANRSGGRTTYADSVKGRFTISRDNAKNTVYLQMISLKTEDTAVYYGAAPLYYKSWTYPRLRSGYWGQGTQVTVSS | high polyreactivity
20 | QVQLVESGGGLVQAGGSLRLSCAASGSIFQWNAMGWYRQAPGKERELVAAMSWSGTRTYYADSVKGRFTISRDNAKNTVYLQMNSLKPEDTAVYDCAFRGGKPTYRYDYWGQGTQVTVSS | high polyreactivity
21 | QVQLVESGGGLVQAGGSLRLSCAASGSIFQWYAMGWYRQAPGKERELVAAITISGTRTYYADSVKGRFTISRDNAKYTVYLQMNSLKPEDTAVYYCAATEGGRFRRIADASMYYWGQGTQVTVSS | high polyreactivity
22 | QVQLVESGGGLVQAGGSLRLSCAASGSIFQYNAMGWSRQAPGKERELVAAISSRGGITYYADSVKGRFTISRDNAKNTVYLQMNSLKPEDTAVYYCAAEAYYSEVRWYEYWGQGTQVTVSS | high polyreactivity

Row | Sequence | polyreactivity (PSR sort gate)
23 | QVQLVESGGGLVQAGGSLRLSCAASGSIFQYNAMGWYREAPGHEWELVAVISRSGSRTYYADSVKGRFTISRDNAKNTVYLQMNSLKPEDTAVYYCAADIWFYTYYGYDYWGQGTQVTVSS | high polyreactivity
24 | QVQLVESGGGLVQAGGSLRLSCAASGSIFQYNAMGWYRQAPGKEREFVADISYSGGTTDYADSVKGRFTISRDNAKNTVYLQMNRLKPEDTAVYYCNADLSSGYPYSYYSATEYDYWGQGSQVTVSS | low polyreactivity
25 | QVQLVESGGGLVQAGGSLRLSCAASGSIFQYNAMGWYRQAPGTERELVAAITWTGTSTYADSVKGRFTISRDNAKNTVYLQMNSLKPEDTAVYYCAARYYAPRWFRYDYWGQGTQVTVSS | low polyreactivity
26 | QVQLVESGGGLVQAGGSLRLSCAASGSIFQYNAMGWYRQVPGKERELVAAITSGGSTYADSVKGRFTISRDNAKNTVYLQMNSLKPEDTAVYYCNADRWFGNYLHLTFLNDYWGQGTQVTVSS | low polyreactivity
27 | QVQLVESGGGLVQAGGSLRLSCAASGSIFQYNVKGWYRQEPGKEREFVADISSSGGSTYYADSVKGRFTISRDNAKNTVYLQMNSLKPEDTAVYYCNADPGYVFYRDEYWGQGTQVTVSS | low polyreactivity
28 | QVQLVESGGGLVQAGGSLRLSCAASGSIFRANAMGGYRQAPGKERELVATISSGGSTNYADSVKGRFTISRDNAKNTVYLQMNSLKPEDTAVYYCAVKWYPPGHDYWGQGTQVTVSS | low polyreactivity
29 | QVQLVESGGGLVQAGGSLRLSCAASGSIFRANAMGWYRQAPGKERELVAAISYSGGSTYYADSVKGRFTISRDNAKNTVYLQMNTLKPEDTAVYYCAAEFLYASVYYSYWGQGTQVTVSS | high polyreactivity
30 | QVQLVESGGGLVQAGGSLRLSCAASGSIFRANVLGWYRKAPGKERELVAAISRGGGTTYYADSVKGRFTISRDNAKNTVYLQMNSLKPEDTAVYYCAALGHYRSNNNVDMDYWGQGTQVTVSS | high polyreactivity
31 | QVQLVESGGGLVQAGGSLRLSCAASGSIFRAYALGWYRQAPGEERELVAAISWRAGRTYYADSVKGRFTISRDNAKNTVYLQMNSLKPEDTAVYYCAARKRAQQGTRDHDYWGQGTQVTVSS | high polyreactivity
32 | QVQLVESGGGLVQAGGSLRLSCAASGSIFRAYAMGWYRQAPGKERELVAAISIGGRTYYADSVKGRFTISRDNAKNTVYLQMNSLKPEDTAVYYCAAVRSYVKGGMYYWGQGTQVTVSS | low polyreactivity
33 | QVQLVESGGGLVQAGGSLRLSCAASGSIFRAYAMGWYRQAPGKERELVAAISWGGGSTSYADSVKGRFTISRDNAKNTVYLQMNSLKPEDTAVYFCNKVSFSKRRDYYWGQGTQVTVSS | high polyreactivity
34 | QVQLVESGGGLVQAGGSLRLSCAASGSIFRAYAMGWYRQAPGKERELVAAISWGGGSTSYADSVKGRFTISRDNAKNTVYLQMNSLKPEDTAVYYCNKVSFSKRRDYYWGQGTQVTVSS | high polyreactivity
35 | QVQLVESGGGLVQAGGSLRLSCAASGSIFRAYAMGWYRQAPGKERELVAAITRGGSTNYADSVKGRFTISRDNAKNNVYLQMKSLKPEDTAVYYCAAQNYWYYPRRFDYWGQGTQVTVSS | high polyreactivity
36 | QVQLVESGGGLVQAGGSLRLSCAASGSIFRAYAMGWYRQAPGKERELVAGITKSGGSTYYADSVKGRFTISRDNAKNTVYLQMNILKPEDTAVYYCAAYRSRTYGYWGQGTQVTVSS | high polyreactivity
37 | QVQLVESGGGLVQAGGSLRLSCAASGSIFRAYTMGWYRQAPGKERELVAAINWSGGSTYYADSVKGRFTISRDNAKNTVYLQMNSLKPEDTAVYYCAKRWASWRYDYWGQGTQVTVSS | high polyreactivity
38 | QVQLVESGGGLVQAGGSLRLSCAASGSIFRDNAMGWYRQAPGKERELVAAINVRDGDTFYADSVKGRFTISRDNAKNTVYLQMNSLKPEDTAVYYCAVPGATSYFAYDSWGQGTQVTVSS | low polyreactivity
39 | QVQLVESGGGLVQAGGSLRLSCAASGSIFRFKAMGWYRQAPGKERELVAAITSSGGSTYYADSVKGRFTISRDNAKNTVYLQMNSLKPEDTAVYYCAAGARRVGRYYWGQGTQVTVSS | high polyreactivity
40 | QVQLVESGGGLVQAGGSLRLSCAASGSIFRFYAMGWYRQAPGKERELDAVITSTGRKYYADSVKGRFTISRDNAKNTGYLQMTSLKPEDTAVYYCNAAEAGKGAYAYDYWGQGTQVTVSS | low polyreactivity
41 | QVQLVESGGGLVQAGGSLRLSCAASGSIFRFYAMGWYRQAPGKERELVAAITSGGSTNYADSVKGRFTISRDNAKNTVYLQMNSLKPEDTAVYYCAAELVYFFIYDYWGQGTQVTVSS | low polyreactivity
42 | QVQLVESGGGLVQAGGSLRLSCAASGSIFRFYGMGWYRQAPGKERELVATISWSSGRTSYADSVKGRFTISRDNAKNTVYLQMKSLKPEDTAVYYCNADQWDKSYDYWGQGTQVTVSS | high polyreactivity
43 | QVQLVESGGGLVQAGGSLRLSCAASGSIFRFYTMGWYRQAPGKERELVAAIRYRGTSTYYADSVKGRFTISRDNAKNTVYLQMNSLKPEDTAVYYCATRNIYFSSVDYWGQGTQVTVSS | high polyreactivity
